For 3 molecules, ECL signal results are on record in patent US20120058906A1 (published 2012).

The target of assay [1] is T1, rHuman IGF-1 sR (insulin-like growth factor-1 soluble receptor), CF (R&D Systems Cat#391-GR) (human, UniProt P08069 31-932).
T1 construct: Bought soluble receptor; also called IGF-R1
Description: ECL (MSD multi-spot), antigen on plate, Fab 0.5 nM.

Assay [2] has as its target T2, rHuman P-Cadherin/Fc Chimera, CF (R&D Systems Cat#861-PC) (human, UniProt P22223 108-654).
T2 construct: Bought Fc chimera; also called CDH3; not shown: Fc of the bought chimera
Description: ECL (MSD multi-spot), antigen on plate, Fab 0.5 nM.

For assay [3], the target named is T3, rHuman Erythropoietin R/Fc Chimera, CF (R&D Systems Cat#963-ER) (human, UniProt P19235 25-250).
T3 construct: Bought Fc chimera; also called EPO R/Fc; Epo R; not shown: Fc of the bought chimera
T3 sequence: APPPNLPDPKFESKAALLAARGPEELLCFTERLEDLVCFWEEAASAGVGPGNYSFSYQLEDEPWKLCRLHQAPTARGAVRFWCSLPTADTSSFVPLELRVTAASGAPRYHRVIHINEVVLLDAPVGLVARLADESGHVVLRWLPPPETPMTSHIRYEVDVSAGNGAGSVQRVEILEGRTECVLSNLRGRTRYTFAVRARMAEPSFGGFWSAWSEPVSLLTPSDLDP
Briefly: ECL (MSD multi-spot), antigen on plate, Fab 0.5 nM.

In assay [4] the target is T4, Recombinant Human DLL4 (R&D Systems Cat#1506-D4/CF) (human, UniProt Q9NR61 27-524).
T4 construct: Bought recombinant protein; also called delta-like protein 4
Description: ECL (MSD multi-spot), antigen on plate, Fab 0.5 nM.

The target of assay [5] is T5, rHuman EGF R/Fc Chimera, CF (R&D Systems Cat#344-ER) (human, UniProt P00533 25-645).
T5 construct: Bought Fc chimera; also called ErbB-1; not shown: Fc of the bought chimera
Briefly: ECL (MSD multi-spot), antigen on plate, Fab 0.5 nM.

Assay [6] deals with T6, rHuman HGF R/c-MET/Fc Chimera, CF (R&D Systems Cat#358-MT/CF) (human, UniProt P08581 25-932).
T6 construct: Bought Fc chimera; also called HGF R/Fc; not shown: Fc of the bought chimera
Description: ECL (MSD multi-spot), antigen on plate, Fab 0.5 nM.

The target of assay [7] is T7, rHuman Notch-1/Fc Chimera, CF (R&D Systems Cat#3647-TK) (human, UniProt P46531 19-526).
T7 construct: Bought Fc chimera; not shown: Fc of the bought chimera
Description: ECL (MSD multi-spot), antigen on plate, Fab 0.5 nM.

For assay [8], the target named is T8, rHuman CD44/Fc Chimera, CF (R&D Systems Cat#3660-CD) (human, UniProt P16070 21-220).
T8 construct: Bought Fc chimera; not shown: Fc of the bought chimera
Description: ECL (MSD multi-spot), antigen on plate, Fab 0.5 nM.

The target of assay [9] is T9, rHuman ErbB2/Fc Chimera, CF (R&D Systems Cat#1129-ER) (human, UniProt P04626 23-652).
T9 construct: Bought Fc chimera; also called HER2/neu; not shown: Fc of the bought chimera
Description: ECL (MSD multi-spot), antigen on plate, Fab 0.4 nM.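 Note: blank spot per well as comparator with Hit at signal to blank ratio of 4 or more.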

Assay [10] has as its target T10, rHuman Erythropoietin R/Fc Chimera, CF (R&D Systems Cat#963-ER) (human, UniProt P19235 25-250).
T10 construct: Bought Fc chimera; also called EPO R/Fc; Epo R; Fc part of the bought chimera not given
T10 sequence: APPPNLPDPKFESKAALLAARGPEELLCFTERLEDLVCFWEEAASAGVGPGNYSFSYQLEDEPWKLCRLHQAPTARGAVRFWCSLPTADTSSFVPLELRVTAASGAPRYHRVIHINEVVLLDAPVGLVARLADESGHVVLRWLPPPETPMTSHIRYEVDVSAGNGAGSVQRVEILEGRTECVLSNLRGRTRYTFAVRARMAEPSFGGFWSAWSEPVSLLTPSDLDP
Description: ECL (MSD Multi-Spot) binding assay, antigen spotted on plate; Fab 30 nM; blank spot 213.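 Note: blank spot per well as comparator with Hit at signal to blank ratio of 4 or more.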

Assay [11] addresses T11, Recombinant Human DLL4 (R&D Systems Cat#1506-D4/CF) (human, UniProt Q9NR61 27-524).
T11 construct: Bought recombinant protein; also called delta-like protein 4; rHuman DLL4
The description is as above.

The target in assay [12] is T12, rHuman Notch-1/Fc Chimera, CF (R&D Systems Cat#3647-TK) (human, UniProt P46531 19-526).
T12 construct: Bought Fc chimera; Fc part of the bought chimera not given
The assay is described as above.

Assay [13] has as its target T13, rHuman CD44/Fc Chimera, CF (R&D Systems Cat#3660-CD) (human, UniProt P16070 21-220).
T13 construct: Bought Fc chimera; Fc part of the bought chimera not given
The assay is described as above.

For assay [14], the target named is T14, rHuman P-Cadherin/Fc Chimera, CF (R&D Systems Cat#861-PC) (human, UniProt P22223 108-654).
T14 construct: Bought Fc chimera; also called CDH3; Fc part of the bought chimera not given
The description is as above.

The target of assay [15] is T10, rHuman Erythropoietin R/Fc Chimera, CF …. Briefly: ECL (MSD Multi-Spot) binding assay, antigen spotted on plate; Fab 240 nM; blank spot 316.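 Note: blank spot per well as comparator with Hit at signal to blank ratio of 4 or more.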
Assay [16] deals with T11, Recombinant Human DLL4 (R&D Systems …). Described as above.
Assay [17] has as its target T12, rHuman Notch-1/Fc Chimera, CF (R&D …). The description is as above.
The target in assay [18] is T13, rHuman CD44/Fc Chimera, CF (R&D Systems …). The description is as above.
Assay [19] concerns the target T14, rHuman P-Cadherin/Fc Chimera, CF (R&D …). The description is as above.

B1: Fab VH1-46_IGHD6-6*01_IGHJ1*01_S102A_S103P_S104Y_H111Y & L6_IGKJ1*01 (Fab, V domains shown)
VH: QVQLVQSGAEVKKPGASVKVSCKASGYTFTSYYMHWVRQAPGQGLEWMGIINPSGGSTSYAQKFQGRVTMTRDTSTSTVYMELSSLRSEDTAVYYCAREEYAPYSAEYFQYWGQGTLVTVSS
VL: not shown
notes: Fab made in E. coli; The heavy chain also carries CH1 with Flag and His tags from Plasmid A, and the light chain carries kappa CL from Plasmid C
Turning to B1, the ECL signal in [1] stood at 1660 ECL signal; in assay [2], 2630 ECL signal; in assay [3] it was 1840 ECL signal; in assay [4] it was 5150 ECL signal; in assay [5], 1750 ECL signal; in assay [6], 1690 ECL signal. The ECL signal in assay [7] was 1760 ECL signal; in assay [8], 1560 ECL signal.

B2: Fab VH1-46_IGHD6-6*01_IGHJ1*01_S102A_S103P_S104F & L6_IGKJ1*01_S31K (Fab, V domains shown)
VH: QVQLVQSGAEVKKPGASVKVSCKASGYTFTSYYMHWVRQAPGQGLEWMGIINPSGGSTSYAQKFQGRVTMTRDTSTSTVYMELSSLRSEDTAVYYCAREEYAPFSAEYFQHWGQGTLVTVSS
VL: EIVLTQSPATLSLSPGERATLSCRASQSVSKYLAWYQQKPGQAPRLLIYDASNRATGIPARFSGSGSGTDFTLTISSLEPEDFAVYYCQQRSNWPPWTFGQGTKVEIKR
notes: Fab
Regarding B2, the ECL signal in assay [9] worked out at 159 ECL signal.

B3: Fab VH6-1_IGHD3-3*01_IGHJ4*01 & V4-3_IGLJ4*01 (Fab, V domains shown)
VH: QVQLQQSGPGLVKPSQTLSLTCAISGDSVSSNSAAWNWIRQSPSRGLEWLGRTYYRSKWYNDYAVSVKSRITINPDTSKNQFSLQLNSVTPEDTAVYYCAREYYDFWSGYYTDYFDYWGQGTLVTVSS
VL: QPVLTQPTSLSASPGASARLTCTLRSGINLGSYRIFWYQQKPESPPRYLLSYYSDSSKHQGSGVPSRFSGSKDASSNAGILVISGLQSEDEADYYCMIWHSSASFVFGGGTQLIIL
notes: Tested as a Fab made in E. coli; also called IGHV6-1*01
With B3, the ECL signal in [10] turned out to be 325; in [11] it was 736; in assay [12] it was 425; in assay [13], 484; in assay [14], 440; in assay [15] it was 478. For the same molecule, the ECL signal in assay [16] is 1270; in [17], 368; in assay [18], 470; in assay [19], 383.
